Results: publication doi:10.1101/2024.06.02.597006 (bioRxiv, 2024)

Assays:
[1] = biological target: T1, Pex5 (full-length yeast Pex5, 1-612), His-Sumo cleaved off (Saccharomyces cerevisiae, UniProt P35056 1-612); assay: cryo-EM structure
T1 sequence (looked up): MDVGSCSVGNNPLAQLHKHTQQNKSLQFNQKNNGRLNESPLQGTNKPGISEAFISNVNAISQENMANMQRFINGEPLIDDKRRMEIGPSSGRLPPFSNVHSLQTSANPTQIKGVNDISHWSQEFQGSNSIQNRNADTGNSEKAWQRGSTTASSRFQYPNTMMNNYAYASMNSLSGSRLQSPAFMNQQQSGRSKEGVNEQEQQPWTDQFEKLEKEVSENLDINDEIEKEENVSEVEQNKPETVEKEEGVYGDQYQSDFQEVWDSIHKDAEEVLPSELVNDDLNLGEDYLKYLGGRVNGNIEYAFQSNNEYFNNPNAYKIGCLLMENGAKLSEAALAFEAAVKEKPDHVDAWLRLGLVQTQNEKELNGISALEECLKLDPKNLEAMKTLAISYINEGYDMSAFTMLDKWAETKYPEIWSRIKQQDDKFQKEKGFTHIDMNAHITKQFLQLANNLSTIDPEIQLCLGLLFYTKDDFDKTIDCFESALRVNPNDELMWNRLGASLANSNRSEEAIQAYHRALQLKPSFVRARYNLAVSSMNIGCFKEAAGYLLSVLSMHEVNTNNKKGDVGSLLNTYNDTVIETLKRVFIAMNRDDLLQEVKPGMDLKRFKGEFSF

cryo-EM structure = biological target: the molecule itself; assay: cryo-EM structure

stoichiometry N [1]: 6 Eci1 per Pex5
B1: FLAG-Eci1 (yeast delta3, delta2-Enoyl-CoA Isomerase 1) (enzyme, Saccharomyces cerevisiae (yeast), UniProt Q05871 1-280, looked up)
chain: MSQEIRQNEKISYRIEGPFFIIHLMNPDNLNALEGEDYIYLGELLELADRNRDVYFTIIQSSGRFFSSGADFKGIAKAQGDDTNKYPSETSKWVSNFVARNVYVTDAFIKHSKVLICCLNGPAIGLSAALVALCDIVYSINDKVYLLYPFANLGLITEGGTTVSLPLKFGTNTTYECLMFNKPFKYDIMCENGFISKNFNMPSSNAEAFNAKVLEELREKVKGLYLPSCLGMKKLLKSNHIDAFNKANSVEVNESLKYWVDGEPLKRFRQLGSKQRKHRL
stoichiometry N (cryo-EM structure): 6
